Reference: the nanobody polyreactivity screen of Harvey et al. (2022)

Test: yeast display, Sf9 membrane polyspecificity reagent, FACS + sequencing; frameworks hold sequencing errors
Method in brief: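 Sorting gates, low and high (top ~1%), were placed on anti-HA fluorescence to track expression and on streptavidin fluorescence to track reagent binding. A clone's polyreactivity label is taken from the gate it came out of. The reagent was 10% biotinylated, detergent-solubilized Sf9 membrane, applied for 1 hour at 4 °C to galactose-induced yeast display cells.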

Sequence | polyreactivity (PSR sort gate)
QVQLVESGGGLVQAGGSLRLSCADSGFTFPSYAMGGYRQAPGKERELVDVISRRGGSTYYADSVKGRFTISRDNAKNTVYLQMNSLKPEDTAVYYCARPRQPGSLYGYWGQGTQVTVSS | high polyreactivity
QVQLVESGGGLVHAGGSLSLSCAASGRTFTSNAMGWYRQAPGKERELVATINGGVSTYYADSVKGRFTISRDNAKNTVYLQMNSLKPEDTAVYYCARDAYDADPSLWYYTYDYWGQGTQVTVSS | low polyreactivity
QVQLLESGGGLVQAGGSLRLSCAASGGTFYSYAMGWYRQAPGKERELVATITRRSGSTYYADSVKGRFTISRDNAKNTVYLQMNSLKPEDTAVYYCAATKYKLLFIHFRYDYWGQGTQVTVSS | high polyreactivity
QVQLVESGGGLVQAGGSLRLSCAASGLTFVDNAMGWYRQAPGKERELVAAISFRDGSTYYADSVKGRFTISRDNAKNTVYLQMNSLKPEDTAVYYCAAVGQTHPTSPLSTKYDYWGQGTQVTVSS | low polyreactivity
QVQLVESGGGLVQAGGSLRLSCAASGGTFTSNAMGWYRQAPGKERELVAAISSRGGTYYADSVKGRFTISRDNAKNTVYVQMNSLKPEDTAVYYCAARGYLYSWNVSHTYDYWGQGTQVTVSS | high polyreactivity
QVQLVESGGGLVQAGGSLRLSCDASGSTFPVNAMGWYRQAPGKERELVAAISSRGSSTYYADSVKGRFTISRDNAKNTVYLQMNSLKPEDTAVYYCAAPQRYPRFYYWGQGTQVTVSS | high polyreactivity
QVQHVESGGGLVQAGGSLRLSCAASGRTFRRYAMGWYRQAPGKERELVAVITTGSTYYADSVKGRFTISRDNAKNTVYLQMNSLKPEDTALYYCAADFYRATARYEMDYWGQGTQVTVSS | high polyreactivity
QVQIEESGGGLVQAGGSLRLSCAASGRTFYANVMGWSRQAPGIEWELVAAITYSGGSTYYADSVKGRFTISRDNAQNTVYVLMNCLKQEDTADYYCAADNVYTFYYWGQGTLVTVSS | low polyreactivity
QVQLVESGGGLVQAGGSLRLSCAASGFIFRRYAMGWYRQAPGKDRALVAAITIGGSTSYADSVKGRFTISRDNAKKTVYVQMNSLKPEDTAVYYCNAGSFSRKARRYDYWGQGTQVTVSS | high polyreactivity
QVQLVESGGGLVQAGGSLRLSCAASGSTFSHYAMGWYRQATGKERELVAAISKSGGITYYADSVKGRFTISRDNAKNTVYLQMNSLKPEDTAVYYCNARWSWRGTRYDYGYWGQGTQVTVSS | low polyreactivity
QVQLVESGGGLVQAGGSLRLSCAASGSTFYIYAMGWYRQAPGKERELVAAITWSGGRTFYADSVKGRFTISRDNAKNTVYLHMNSLKPEDTAVYFCSARFWSDKTGSRYYYWGQGTQVTVSS | high polyreactivity
QVQLVESGGGLVQAGGSLRLSCAASGSIFVFNAMGWYRQAPGKERELVADITRRGGSTYYADSVKGRFTISRDNAKNTVYLQMNSLKPEDTAVYYCAAANPRDHRGANDYWGQGTQVTVSS | high polyreactivity
QVQLVESGGGIVQAGGSLRLSCAASGLTFGFNAKGWYTQAPGQERELVATIDLNGGSTTYADSVKGRFTLSRDNAKNTVYLQMNSLKPEDTAVYYCAAQTGFVSHFFSHYDYGGQGTQVTVSS | low polyreactivity
QVQLVESGGGLVEAGGSLRLSCAASGIIFVSYDMGWYRQAPGKERELVAAINRGGRTYYADSVKGRFTISRDNAKNTVYLQMISLKPEDTAVYYCAAQFHFRPFSWTYDYWGQGTQVSVSS | high polyreactivity
QVQLVESGGGLVQAGGSLRLSCAASGSILGLYAMGWYRQAPGKERELVAAISSGGSTYYADSVKGRFTISRDNAKNTVYLQMNSLKPEDSAVYYCAADLSWSRVVFGDYDYWGQGTQVTVSS | low polyreactivity
QVQLVESGGGLVQAGGSLRLSCAASGFTLYRYAMGWYRQAPAKERELVAANNSRGGSTYYADSVKGRFTISRDNAKITVYLQMISLKPDDTAVYYCNARRIRGGVRLTSPFYYWGQGTHVTVSS | high polyreactivity

Sequence | polyreactivity (PSR sort gate)
QVQLVESGGGLVQAGGSLRLSCAASGYTIFSYGMGWYRQAPGKERELVAAISSGDRTNYADSVKGRFTISRDNAKNTVYLQMNSLKPEDTAVYYCNADRASSSVGYSDDFGHDSWGQGTQVTVSS | low polyreactivity
QVQLVESGGGLVQAGGSLRLSCAASGRIFQRYAMGWYRQAPGKERELVAAITTGGRTYYADSVKGRFTISRDNAKNTVYLQMNSLKPEDTAVYYCAARFVGSRYRFDYWGQGTQVTVSS | high polyreactivity
QVQLVESVVGLVQAGGSLRLSSAASGGTFSENAMGWYRQAPGKERELVAAITWSVGNTYADSVKGLFTISRDNAKNTVYLQMNSLKPEDTAVYYCAKDFSVPAYDYWGLGTQVTVSS | low polyreactivity
QVQLVESGGGLVQAGGSLRLSCAASGYTFRYYAMGWYRQAPGKERELVAAISSGGSTYYADSVKGRFTISRDNAKNTVYLQMNSLKPEDTAVYYCATGPRIRYDYWGQGTQVTVSS | high polyreactivity
QVQLVESGGGLVQAGGSLRLSCAASGRIFPYYAMGWYRQAPGKERELVAAISYRGTRTSYADSVKGRFTISRDNAKNTVYLQMNSLKPEDTAVYYCAAQRYFGISWPYDYWGQGTQVTVSS | high polyreactivity
QVQLVESGGGLVQAGGSLRLSCAASGLIFRRYAMGWYRQAPGKERELVAAITRNGGSTYYADSVKGRFTISRDNAKNTVYLQMNSLKPEDTAVYYCAADRYRRRGGLDYWGQGTQVTVSS | high polyreactivity
QVQLVESGGGLVQAGGSLRLSCAASGSTYDDNAMGWYRQAPRKERELVAGISTNGGSTSYADSVKGRFTISRDNAKNTVYLQMNSLYPEDTAVYYCATGLYVQFDYWGQGTQVTVSS | low polyreactivity
QVQLVESGGGLVQAGGSLRLSCAASGRIIGAYAMGWYRQAPGKERELVARISWSGGTTYYADSVKGRFTISRDNAKNTVYLQMDSLKPEDTAVYYCAARYSYYVTGGISKYDYWGQGTQVSVSS | low polyreactivity
QVQLVESGGGLVQAGGSLRLSCAASGSTFRNYSMGWYRQAPGKERELVAAISGSGGRTNYADSVKGRFTISRDNAKNTVYLQMNSLKPEDTAVYYCNADGGPGYPRAYDYWGQGTQVTVSS | low polyreactivity
QVHLVESGGGLVQAGGSLRLSCAASGSTIRAYAMGWNRQAHVKERELVAAISYSGDSTYYADSVKGRFTISRDNAKNTVYLQMNSLKPEDTAVYYCAADYSYRHYEYDYWGQGTQVSVSS | low polyreactivity
QVQLVESGGGLVQAGGSLRLSCAASGRIFTYYAMGWYRQAPGKERELVAAISTRGGNTYYADSVKGRFTISRDNAKNSVYLQMNSLKPEDTAVYYCSKENYYGGGFDYWGQGTQVTVSS | high polyreactivity
QVQLVESVGGLVQAGGSLRLSCAASGFIFYGYAMGWYRQAPGKERELVAAISRSGTSTYYADSVKGRFTISRDNAKNTVYLQMNSLKPEDTAVYYCAADYVGWKWGSRGAIYKHYYWGQGTQVTVSS | high polyreactivity
QVQLVESGGGLVQAGGSLRLSCAASGSIFFSYAMGWYRQAPGKERELVAGINWSGGSTYADSVKGRFTISRDNAKNPVYLQMNSLTPEDTAVYYCAAKYYSERSRYHYWGQGTQVTVSS | low polyreactivity
QVQLVESGGGLVQAGGSLRLSCAASGRIFYAYAMGWYRQAPGKERELVARISYSGGNTYYADSVKGRFTISRDNAKNTVYLQMNSQKPEDTAVYYCNTDYRARFGYWGQGTQVTVSS | high polyreactivity
QVQLVESGGGLVQAGGSLRLSCAASGFTFWRYAMGWYRQAPGKERELVAAISRTGGRTYYADSVKGRFTISRDNAKNTVYLQMNSLKPEDTAVYYCAAVKYETYRYNYDYWGQGTQVTVSS | high polyreactivity
QVQLVESGGGLVQAGGSLRLSCAASGFIFTQNGMGWYRQAPGKERELVAAISWSAGGTYYADSVKGRFTISRDNANNTVYLQMNSLKQEDTAVYYCNAELYFYWNVWVGYDYWGQGTQVTVSS | low polyreactivity
